Reference: the supplement of paper PMC11246515
± gives the standard deviation of the averaged measurements.

Assay: total protein half-life in vivo (active degradation + dilution); higher = more stable protein
[1] = wild type E. coli NCM3722, growth: P-lim chemostat, doubling time 12 h
[2] = E. coli NCM3722 delta-clpP, growth: N-lim chemostat, doubling time 6 h
[3] = E. coli NCM3722 delta-hslV, growth: N-lim chemostat, doubling time 6 h
[4] = E. coli NCM3722 delta-lon, growth: N-lim chemostat, doubling time 6 h
[5] = E. coli NCM3722 delta-smpB, growth: N-lim chemostat, doubling time 6 h
[6] = wild type E. coli NCM3722, growth: C-lim chemostat, doubling time 3 h
[7] = wild type E. coli NCM3722, growth: C-lim chemostat, doubling time 6 h
[8] = wild type E. coli NCM3722, growth: C-lim chemostat, doubling time 12 h
[9] = wild type E. coli NCM3722, growth: N-lim chemostat, doubling time 6 h
[10] = wild type E. coli NCM3722, growth: N-lim chemostat, doubling time 12 h
[11] = wild type E. coli NCM3722, growth: P-lim chemostat, doubling time 6 h
[12] = E. coli NCM3722 delta-clpP delta-lon delta-hslV, growth: N-lim chemostat, doubling time 6 h

Row | Sequence | total protein half-life in vivo [1] [h] | total protein half-life in vivo [2] [h] | total protein half-life in vivo [3] [h] | total protein half-life in vivo [4] [h] | total protein half-life in vivo [5] [h] | total protein half-life in vivo [6] [h] | total protein half-life in vivo [7] [h] | total protein half-life in vivo [8] [h] | total protein half-life in vivo [9] [h] | total protein half-life in vivo [10] [h] | total protein half-life in vivo [11] [h] | total protein half-life in vivo [12] [h]
1 | MQRKTLLSACIALALSGQGWAADITEVETTTGEKKNTNVTCPADPGKLSPEELKRLPSECSPLVEQNLMPWLSTGAAALITALAVVELNDDDDHHHRNNSPLPPTPPDDESDDTPVPPTPGGDEIIPDDPDDTPTPPKPVSFNNDVILDKTEKTLTIRDSVFTYTENADGTISLQDSNGRKATINLWQIDEANNTVALEGVSADGATKWQYNHNGELVITGDNATVNNNGKTTVDGKDSTGTEINGNNGKVIQDGDLDVSGGGHGIDITGDSATVDNKGTMTVTDPESMGIQIDGDKAIVNNEGESTITNGGTGTQINGDDATANNNGKTTVDGKDSTGTEINGNNGKVIQDGDLDVSGGGHGIDITGDSATVDNKGTMTVTDPESIGIQVDGDQAVVNNEGESAITNGGTGTQINGDDATANNNGKTTVDGKDSTGTEIAGNNGKVIQDGDLDVSGGGHGIDITGDSATVDNKGTMTVTDPESIGIQIDGDQAIVNNEGESTITNGGTGTQINGNDATANNSGKTTVDGKDSTGTKIAGNIGIVNLDGSLTVTGGAHGVENIGDNGTVNNKGDIVVSDTGSIGVLINGEGATVSNTGDVNVSNEATGFSITTNSGKVSLAGSMQVGDFSTGVDLNGNNNSVTLAAKDLKVVGQKATGINVSGDANTVNITGNVLVDKDKTADNAAEYFFDPSVGINVYGSDNNVTLDGKLTVVSDSEVTSRQSNLFDGSAEKTSGLVVIGDGNTVNMNGGLELIGEKNALADGSQVTSLRTGYSYTSVIVVSGESSVYLNGDTTISGEFPLGFAGVIRVQDKALLEIGSGATLTMQDIDSFEHHGTRTLDLPLYFQTSVIT | 11 ± 1.1 | – | – | – | – | – | – | – | – | – | – | –
2 | MPQRILVLGASGYIGQHLVRTLSQQGHQILAAARHVDRLAKLQLANVSCHKVDLSWPDNLPALLQDIDTVYFLVHSMGEGGDFIAQERQVALNVRDALREVPVKQLIFLSSLQAPPHEQSDHLRARQATADILREANVPVTELRAGIIVGAGSAAFEVMRDMVYNLPVLTPPRWVRSRTTPIALENLLHYLVALLDHPASEHRIFEAAGPEVLSYQQQFEHFMAVSGKRRWLIPIPLPTRWISVWFLNVITSVPPTTARALIQGLKHDLLADDTALRALIPQRLIAFDDAVRSTLKEEEKLVNSSDWGYDAQAFARWRPEYGYFAKQAGFTVKTSASLAALWQVVNQIGGKERYFFGNILWQTRALMDRAIGHKLAKGRPEREYLQTGDAVDSWKVIVVEPEKQLTLLFGMKAPGLGRLCFSLEDKGDYRTIDVRAFWHPHGMPGLFYWLLMIPAHLFIFRGMAKQIARLAEQSTD | 11.1 ± 0.83 | 6.7 ± 0.22 | 6.57 ± 0.8 | 6.64 ± 0.098 | 6.11 ± 0.37 | 2.94 ± 0.081 | 5.88 ± 0.11 | 12.1 ± 2.1 | 6.42 ± 0.19 | 11.8 ± 0.4 | 5.23 ± 0.016 | –
3 | MNTLRIGLVSISDRASSGVYQDKGIPALEEWLTSALTTPFELETRLIPDEQAIIEQTLCELVDEMSCHLVLTTGGTGPARRDVTPDATLAVADREMPGFGEQMRQISLHFVPTAILSRQVGVIRKQALILNLPGQPKSIKETLEGVKDAEGNVVVHGIFASVPYCIQLLEGPYVETAPEVVAAFRPKSARRDVSE [P0AF03] | 11.3 ± 0.16 | 4.24 ± 0.53 | 4.594 ± 0.04 | 5.05 ± 0.59 | 4.82 ± 0.54 | 2.8 ± 0.21 | 5.83 ± 0.49 | 9.32 ± 0.82 | 4.61 ± 0.27 | 8.09 ± 0.46 | 5.41 ± 0.4 | 4.79 ± 0.77
4 | MKILLIEDNQRTQEWVTQGLSEAGYVIDAVSDGRDGLYLALKDDYALIILDIMLPGMDGWQILQTLRTAKQTPVICLTARDSVDDRVRGLDSGANDYLVKPFSFSELLARVRAQLRQHHALNSTLEISGLRMDSVSHSVSRDNISITLTRKEFQLLWLLASRAGEIIPRTVIASEIWGINFDSDTNTVDVAIRRLRAKVDDPFPEKLIATIRGMGYSFVAVKK | 11.9 ± 0.75 | 4.67 ± 0.22 | 5.28 ± 1 | 4.77 ± 0.42 | 4.91 ± 0.52 | 2.99 ± 0.052 | – | 10.4 ± 0.76 | 4.11 ± 0.2 | 7.422 ± 0.042 | 5.64 ± 0.063 | 5.88 ± 0.19
5 | MTSSLPCGQTSLLLQMTERLALSDAHFRRISQLIYQRAGIVLADHKRDMVYNRLVRRLRSLGLTDFGHYLNLLESNQHSGEWQAFINSLTTNLTAFFREAHHFPLLADHARRRSGEYRVWSAAASTGEEPYSIAMTLADTLGTAPGRWKVFASDIDTEVLEKARSGIYRHEELKNLTPQQLQRYFMRGTGPHEGLVRVRQELANYVDFAPLNLLAKQYTVPGPFDAIFCRNVMIYFDQTTQQEILRRFVPLLKPDGLLFAGHSENFSHLERRFTLRGQTVYALSKD | – | 6.56 | – | – | – | 1.34 | – | 3.42 | – | – | – | –
6 | MLVYWLDIVGTAVFAISGVLLAGKLRMDPFGVLVLGVVTAVGGGTIRDMALDHGPVFWVKDPTDLVVAMVTSMLTIVLVRQPRRLPKWMLPVLDAVGLAVFVGIGVNKAFNAEAGPLIAVCMGVITGVGGGIIRDVLAREIPMILRTEIYATACIIGGIVHATAYYTFSVPLETASMMGMVVTLLIRLAAIRWHLKLPTFALDENGR [P0AFP0] | – | 5.6 | – | – | – | 2.95 | – | 9.77 | – | – | – | 6.04
7 | MNTTPSQRLGFLHHIRLVPLFACILGGILVLFALSSALAGYFLWQADRDQRDVTAEIEIRTGLANSSDFLRSARINMIQAGAASRIAEMEAMKRNIAQAESEIKQSQQGYRAYQNRPVKTPADEALDTELNQRFQAYITGMQPMLKYAKNGMFEAIINHESEQIRPLDNAYTDILNKAVKIRSTRANQLAELAHQRTRLGGMFMIGAFVLALVMTLITFMVLRRIVIRPLQHAAQRIEKIASGDLTMNDEPAGRNEIGRLSRHLQQMQHSLGMTVGTVRQGAEEIYRGTSEISAGNADLSSRTEEQAAAIEQTAASMEQLTATVKQNADNAHHASKLAQEASIKASDGGQTVSGVVKTMGAISTSSKKISEITAVINSIAFQTNILALNAAVEAARAGEQGRGFAVVASEVRTLASRSAQAAKEIEGLISESVRLIDLGSDEVATAGKTMSTIVDAVASVTHIMQEIAAASDEQSRGITQVSQAISEMDKVTQQNASLVEEASAAAVSLEEQAARLTEAVDVFRLHKHSVSAEPRGAGEPVSFATV | – | – | – | – | – | 2.39 ± 0.0043 | 4.42 ± 0.23 | 6.36 ± 0.25 | – | – | – | –
8 | MRLEVFCEDRLGLTRELLDLLVLRGIDLRGIEIDPIGRIYLNFAELEFESFSSLMAEIRRIAGVTDVRTVPWMPSEREHLALSALLEALPEPVLSVDMKSKVDMANPASCQLFGQKLDRLRNHTAAQLINGFNFLRWLESEPQDSHNEHVVINGQNFLMEITPVYLQDENDQHVLTGAVVMLRSTIRMGRQLQNVAAQDVSAFSQIVAVSPKMKHVVEQAQKLAMLSAPLLITGDTGTGKDLFAYACHQASPRAGKPYLALNCASIPEDAVESELFGHAPEGKKGFFEQANGGSVLLDEIGEMSPRMQAKLLRFLNDGTFRRVGEDHEVHVDVRVICATQKNLVELVQKGMFREDLYYRLNVLTLNLPPLRDCPQDIMPLTELFVARFADEQGVPRPKLAADLNTVLTRYAWPGNVRQLKNAIYRALTQLDGYELRPQDILLPDYDAATVAVGEDAMEGSLDEITSRFERSVLTQLYRNYPSTRKLAKRLGVSHTAIANKLREYGLSQKKNEE | 9.34 ± 0.13 | 4.83 ± 0.089 | 4.73 ± 0.23 | 6.13 ± 0.71 | 4.6 ± 0.14 | 2.69 ± 0.14 | 5.844 ± 0.052 | 8.21 ± 0.57 | 4.51 ± 0.34 | 8.243 ± 0.066 | 4.84 ± 0.092 | 6.71 ± 0.79
9 | MNIFDHYRQRYEAAKDEEFTLQEFLTTCRQDRSAYANAAERLLMAIGEPVMVDTAQEPRLSRLFSNRVIARYPAFEEFYGMEDAIEQIVSYLKHAAQGLEEKKQILYLLGPVGGGKSSLAERLKSLMQLVPIYVLSANGERSPVNDHPFCLFNPQEDAQILEKEYGIPRRYLGTIMSPWAAKRLHEFGGDITKFRVVKVWPSILQQIAIAKTEPGDENNQDISALVGKVDIRKLEHYAQNDPDAYGYSGALCRANQGIMEFVEMFKAPIKVLHPLLTATQEGNYNGTEGISALPFNGIILAHSNESEWVTFRNNKNNEAFLDRVYIVKVPYCLRISEEIKIYEKLLNHSELTHAPCAPGTLETLSRFSILSRLKEPENSSIYSKMRVYDGESLKDTDPKAKSYQEYRDYAGVDEGMNGLSTRFAFKILSRVFNFDHVEVAANPVHLFYVLEQQIEREQFPQEQAERYLEFLKGYLIPKYAEFIGKEIQTAYLESYSEYGQNIFDRYVTYADFWIQDQEYRDPDTGQLFDRESLNAELEKIEKPAGISNPKDFRNEIVNFVLRARANNSGRNPNWTSYEKLRTVIEKKMFSNTEELLPVISFNAKTSTDEQKKHDDFVDRMMEKGYTRKQVRLLCEWYLRVRKSS [P0ACY3] | 7.66 ± 0.77 | 2.691 ± 0.0021 | 2.49 ± 0.037 | 2.38 ± 0.24 | 2.24 ± 0.06 | 2.76 ± 0.21 | 3.41 ± 0.25 | 4.77 ± 0.46 | 2.48 ± 0.11 | 3.09 ± 0.1 | 4.703 ± 0.016 | 3.5 ± 0.94
10 | MSSFQFEQIGVIRSPYKEKFAVPRQPGLVKSANGELHLIAPYNQADAVRGLEAFSHLWILFVFHQTMEGGWRPTVRPPRLGGNARMGVFATRSTFRPNPIGMSLVELKEVVCHKDSVILKLGSLDLVDGTPVVDIKPYLPFAESLPDASASYAQSAPAAEMAVSFTAEVEKQLLTLEKRYPQLTLFIREVLAQDPRPAYRKGEETGKTYAVWLHDFNVRWRVTDAGFEVFALEPR | 13.5 ± 1.7 | 4.77 ± 0.35 | 4.77 ± 0.049 | 5.29 ± 0.31 | 5.06 ± 0.3 | 2.89 ± 0.41 | 5.88 ± 0.54 | 9.48 ± 0.38 | 4.98 ± 0.3 | 10.1 ± 2.3 | 6.19 ± 0.56 | 5 ± 0.19
11 | MKIISFVLPCLLVLAGCSTPSQPEAPKPPQIGMANPASVYCQQKGGTLIPVQTAQGVSNNCKLPGGETIDEWALWRRDHPAGEK | – | > 8 | – | 6.51 | 5.85 | 2.68 | – | 15.8 ± 0.2 | – | 14.4 ± 0.2 | 6.22 | –
12 | MNTIFSARIMKRLALTTALCTAFISAAHADDLNIKTMIPGVPQIDAESYILIDYNSGKVLAEQNADVRRDPASLTKMMTSYVIGQAMKAGKFKETDLVTIGNDAWATGNPVFKGSSLMFLKPGMQVPVSQLIRGINLQSGNDACVAMADFAAGSQDAFVGLMNSYVNALGLKNTHFQTVHGLDADGQYSSARDMALIGQALIRDVPNEYSIYKEKEFTFNGIRQLNRNGLLWDNSLNVDGIKTGHTDKAGYNLVASATEGQMRLISAVMGGRTFKGREAESKKLLTWGFRFFETVNPLKVGKEFASEPVWFGDSDRASLGVDKDVYLTIPRGRMKDLKASYVLNSSELHAPLQKNQVVGTINFQLDGKTIEQRPLVVLQEIPEGNFFGKIIDYIKLMFHHWFG [P0AEB2] | 13.2 ± 0.43 | 6.72 ± 0.74 | 6.22 ± 0.15 | 6.61 ± 0.36 | 6.03 ± 0.14 | 3.24 ± 0.07 | 6.05 ± 0.17 | 12 ± 2.8 | 6.23 ± 0.14 | 14.5 ± 2 | 6.1 ± 0.093 | 6.19 ± 0.7
